Experiment [1] concerns the target T1, monomeric Aβ (UniProt P05067 672-713). In words: SPR. On the technique in general: SPR reads the build-up and loss of mass on a sensor chip optically.
Experiment [2] has as its target T2, synthetic Aβ protofibrils (Aβ1-42-derived protofibrils) (UniProt P05067 672-713). Kind of experiment: Octet BLI (Protein G sensor); PF 0.9167 nM; LB. A general note: Biolayer interferometry detects binding as a change in optical thickness at a sensor tip.
In experiment [3] the target is T2, synthetic Aβ protofibrils …. In words: Octet BLI (Protein G sensor); PF 3.67 nM; LB.
Experiment [4] shares this target. Kind of experiment: Octet BLI (Protein G sensor); PF 14.7 nM; LB.
The target in experiment [5] is T1, monomeric Aβ. In words: BIAcore SPR.
Experiment [6] has as its target T2, synthetic Aβ protofibrils …. Kind of experiment: Octet BLI (Protein G sensor); PF 0.9167 nM.
Experiment [7] has the same target. In words: Octet BLI (Protein G sensor); PF 3.67 nM.
Experiment [8] has as its target T1, monomeric Aβ. In words: SPR. The source holds these as a separate data set.
The target in experiment [9] is T2, synthetic Aβ protofibrils …. Kind of experiment: Octet BLI (Protein G sensor); PF 14.7 nM.
The target in experiment [10] is T1, monomeric Aβ. In words: BIAcore SPR. The source holds these as a separate data set.
For experiment [11], the target named is T1, monomeric Aβ. Kind of experiment: SPR. This is another data set of the same source.
Experiment [12] deals with T1, monomeric Aβ. In words: BIAcore SPR. The source holds these as a separate data set.
For experiment [13], the target named is T1, monomeric Aβ. Kind of experiment: SPR. This is another data set of the same source.

Changes are numbered by the printed parent chain.

T2 sequence (P05067 672-713): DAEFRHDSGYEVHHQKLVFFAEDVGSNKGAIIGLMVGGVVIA
T1 sequence (P05067 672-713): as above

B1: B24 (hybridoma-purified mAb) (antibody, V domains shown)
VH: EVQLLESGGGLVQPGGSLRLSCAASGFTFSSYAMTWVRQAPGEGLEWVSTISGSGIRTYYADSVKGRFTISRDNSKNTMYLQMNSLRAEDTAVYYCAKDGLTGDRRWYFDLWGRGTLVTVSS
VL: EIVMTQSPATLSLSPGERATLSCRASQSVSSSYFSWYQQKPGQAPRLLIYGASTRATGIPARFSGSGSGTDFTLTISSLQPEDFAVYYCQQDSNLPLTFGGGTKVEIK
The term koff denotes the first-order rate constant of dissociation. Low readings indicate a long-lived complex, high ones a short-lived complex. The term Kd denotes a measure of binding affinity in units of concentration. Read a high Kd as weaker binding. For B1, the dissociation rate constant (koff) in experiment [1] stood at 0.0956 s⁻¹. Besides, the dissociation constant Kd in [2], in experiment [3] and in [4] was less than 1 pM in each case.

B2: B19 reprep (=B24) (antibody, V domains shown)
VH: B1 VH
VL: B1 VL
In experiment [5], B2 showed a dissociation rate constant (koff) of 6.58e-07 s⁻¹.

B3: B73 (hybridoma-purified mAb) (antibody, V domains shown)
VH: QLQLQMSGPGLVKPSETLSLTCTVSGGSISSSSYYWGWIRQSPGKGLEWIGSIYYSGRTYYNPSLKSRVTISVDTSKNQFSLKLSSVTAADTAMYYCARRSSGRPYYWGQGTLVTVSS
VL: QAVVTQESALTTSPGGTVILTCRSSTGAVTTSNYANWVQEKPDHLFTGLIGETNNRAPGVPVRFSGSLIGDKAALTITGAQTEDDAMYFCALWYSTHWVFGGGTKLTVL
For the molecule B3, the Kd in [6], in experiment [7] and in experiment [9] was less than 1 pM in each case. This molecule registered a koff in experiment [8] of 0.0012 s⁻¹.

B4: B75 (hybridoma-purified mAb) (antibody, V domains shown)
VH: QVQLVESGGGVVQPGRSLRLSCAASGFTFSSYGMHWVRQAPGKGLEWVAVIWYDGSYKYYADSVKGRFTISRDNSKNTLYLQMNSLRVEDTAVYYCAREGRTYYDFLTGYFDFWGQGTLVTVSS
VL: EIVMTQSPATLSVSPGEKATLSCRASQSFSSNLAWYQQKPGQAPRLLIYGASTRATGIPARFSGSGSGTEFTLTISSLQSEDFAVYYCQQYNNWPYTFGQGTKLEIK
B4: the koff in experiment [10] is 0.00238 s⁻¹.

B5: B90 (hybridoma-purified mAb) (antibody, V domains shown)
VH: QVQLVESGGGVVQPGRSLRLSCAASGFTFSSYGMHWVRQAPGKGLEWVAIIWYDGSKKYYADSVKGRFTISRDNSKNTLYLQMNSLRVEDTAVYYCARRGRVGATRDYYYYSMDVWGQGTTVTVSS
VL: AIQMTQSPSSLSASVGDRVTITCRASQGIRNDLGWFHQKPGKAPKLLIYAASSLQSGVPSRFSGSGSGTDFTLTISSLQPEDFATYYCLQDYVYPWTFGQGTKVEIK
As to B5, the Kd in experiment [6], in experiment [7] and in [9] was less than 1 pM throughout. In addition, in experiment [11], the koff was found to be 0.00722 s⁻¹.

B6: B28 (hybridoma-purified mAb) (antibody, V domains shown)
VH: QVQLVESGGGVVQPGRSVRLSCAATGFTFSSYGMHWVRQAPGKGLEWVAVIWFDGSNEYYADSVRGRFTISRDNSKNTLYLQMNSLRAEDTAVYYCARRGRVGVTRNYYYYNMDVWGQGTTVTVSS
VL: B5 VL with H37Q, A50P, G68D, V93N, Y94F, W96F, Q100P, E105D
With B6, the dissociation constant (Kd) in experiment [7] is less than 1 pM; in experiment [9] it was 21800 pM. Further, the koff in experiment [12] was 9.41e-05 s⁻¹.

B7: B51 (hybridoma-purified mAb) (antibody, V domains shown)
VH: B5 VH with Y32H, I50V, K57N, Y59N, V88A, A104V, D107N, S112G
VL: B5 VL with H37Q, G41V, A50P, V93N
B7: the dissociation constant (Kd) in experiment [6], in [7] and in experiment [9] was less than 1 pM throughout. Also, the koff in [13] worked out at 0.0144 s⁻¹.

B8: B60 (antibody, V domains shown)
VH: B5 VH with Y32H, I50V, K57N, Y59N, V88A, A104V, D107N, S112G
VL: B5 VL with H37Q, G41V, A50P, V93N
Turning to B8, the koff in experiment [10] amounted to 0.00356 s⁻¹.

B9: B54 (hybridoma-purified mAb) (antibody, V domains shown)
VH: B5 VH with S31T, I50L, K65Q, N74S, A104V, D107N, S112G
VL: B5 VL with A25T, G28D, H37Q, L46F, A50P, S56G, T72I, V93N, Y94F, Q100E
For B9, the Kd in experiment [6], in experiment [7] and in experiment [9] was less than 1 pM in each case. Also, in experiment [13], the off-rate (koff) is 0.00526 s⁻¹.

Source of the values: patent US20230107034A1 (published 2023).
